# T1: SHANK1, Q9Y566
# T1 sequence (Q9Y566 658-767, limits assumed, looked up): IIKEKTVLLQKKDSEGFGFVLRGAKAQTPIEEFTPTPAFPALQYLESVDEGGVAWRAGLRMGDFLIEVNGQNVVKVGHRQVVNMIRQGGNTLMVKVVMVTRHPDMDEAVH
# T2: RADIL, Q96JH8
# T2 sequence (Q96JH8 971-1071, limits assumed, looked up): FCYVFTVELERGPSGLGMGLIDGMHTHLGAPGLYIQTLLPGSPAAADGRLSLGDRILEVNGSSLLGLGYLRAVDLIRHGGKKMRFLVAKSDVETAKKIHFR
# T3: APBA2_2, Q99767
# T3 sequence (Q99767 654-744, limits assumed, looked up): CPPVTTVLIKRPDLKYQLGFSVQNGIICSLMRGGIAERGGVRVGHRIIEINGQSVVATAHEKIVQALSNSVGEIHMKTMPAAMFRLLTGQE
# T4: PDZD2_2, O15018
# T4 sequence (O15018 329-429, limits assumed, looked up): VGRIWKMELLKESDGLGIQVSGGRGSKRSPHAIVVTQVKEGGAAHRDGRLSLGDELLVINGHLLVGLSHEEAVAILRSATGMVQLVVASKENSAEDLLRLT
# T5: SNTB1, Q13884
# T5 sequence (Q13884 107-205, limits assumed, looked up): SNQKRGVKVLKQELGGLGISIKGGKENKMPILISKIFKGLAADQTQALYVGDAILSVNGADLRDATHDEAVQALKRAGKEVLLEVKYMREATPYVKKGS
# T6: ARHGAP21, Q5T5U3
# T6 sequence (Q5T5U3 45-169, limits assumed, looked up): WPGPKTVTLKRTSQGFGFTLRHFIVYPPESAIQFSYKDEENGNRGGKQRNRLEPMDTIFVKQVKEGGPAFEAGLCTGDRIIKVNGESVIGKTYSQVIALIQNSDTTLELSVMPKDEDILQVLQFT
# B1: PLEKHA1, Q9HB21 (peptide)
# chain: DDASLPVSDV
# B2: TRIP6, Q15654 (peptide)
# chain: ELSATVTTDC
# B3: SARS-Cov2-N, P0DTC9 (peptide)
# chain: QQSMSSADSTQA
# How the values were obtained:
# Test in all cases: holdup assay
# Design in all cases: key: below the threshold = too weak to quantify, mostly under pKd 3.1 to 4
# PDLIM1, O00151 = target: PDLIM1, O00151
# Chain of PDLIM1, O00151 (O00151 1-87): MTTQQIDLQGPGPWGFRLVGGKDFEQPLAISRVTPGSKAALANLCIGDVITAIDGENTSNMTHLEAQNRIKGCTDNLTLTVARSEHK
# SHANK1, Q9Y566 = target: T1, SHANK1, Q9Y566
# RADIL, Q96JH8 = target: T2, RADIL, Q96JH8
# Inadl_10, Q8NI35 = target: Inadl_10, Q8NI35
# Chain of Inadl_10, Q8NI35 (Q8NI35 1673-1763): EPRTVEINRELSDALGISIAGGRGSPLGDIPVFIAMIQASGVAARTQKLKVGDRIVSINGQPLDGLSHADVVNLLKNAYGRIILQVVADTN
# DLG4_3, P78352 = target: DLG4_3, P78352
# Chain of DLG4_3, P78352 (P78352 306-403): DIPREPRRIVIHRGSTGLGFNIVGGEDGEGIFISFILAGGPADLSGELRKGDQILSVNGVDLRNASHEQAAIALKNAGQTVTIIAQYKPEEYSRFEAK
# GRASP, Q7Z6J2 = target: GRASP, Q7Z6J2
# Chain of GRASP, Q7Z6J2 (Q7Z6J2 96-193): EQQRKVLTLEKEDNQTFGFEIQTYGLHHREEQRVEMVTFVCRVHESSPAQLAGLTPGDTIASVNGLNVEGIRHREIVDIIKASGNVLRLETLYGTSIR
# APBA2_2, Q99767 = target: T3, APBA2_2, Q99767
# HTRA1, Q92743 = target: HTRA1, Q92743
# Chain of HTRA1, Q92743 (Q92743 360-477): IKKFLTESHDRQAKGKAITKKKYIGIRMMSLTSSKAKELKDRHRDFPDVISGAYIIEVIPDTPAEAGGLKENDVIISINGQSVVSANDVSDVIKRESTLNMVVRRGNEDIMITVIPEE
# DLG1_2, Q12959 = target: DLG1_2, Q12959
# Chain of DLG1_2, Q12959 (Q12959 314-412): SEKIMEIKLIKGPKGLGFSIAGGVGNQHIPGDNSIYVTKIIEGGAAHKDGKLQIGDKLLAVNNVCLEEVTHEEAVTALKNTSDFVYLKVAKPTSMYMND
# LNX1_2, Q8TBB1 = target: LNX1_2, Q8TBB1
# Chain of LNX1_2, Q8TBB1 (Q8TBB1 371-470): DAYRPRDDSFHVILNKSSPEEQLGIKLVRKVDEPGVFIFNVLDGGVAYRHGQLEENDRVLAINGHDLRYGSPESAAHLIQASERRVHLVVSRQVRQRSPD
# IL16_4, Q14005 = target: IL16_4, Q14005
# Chain of IL16_4, Q14005 (Q14005 1229-1329): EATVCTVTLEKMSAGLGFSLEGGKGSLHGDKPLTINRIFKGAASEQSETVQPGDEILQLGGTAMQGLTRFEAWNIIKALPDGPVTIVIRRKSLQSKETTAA
# LNX1_3, Q8TBB1 = target: LNX1_3, Q8TBB1
# Chain of LNX1_3, Q8TBB1 (Q8TBB1 500-596): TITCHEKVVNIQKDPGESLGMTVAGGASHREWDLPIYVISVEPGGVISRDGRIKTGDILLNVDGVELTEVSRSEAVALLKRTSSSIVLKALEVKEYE
# DLG2_3, Q15700 = target: DLG2_3, Q15700
# MAST1, Q9Y2H9 = target: MAST1, Q9Y2H9
# Chain of MAST1, Q9Y2H9 (Q9Y2H9 962-1065): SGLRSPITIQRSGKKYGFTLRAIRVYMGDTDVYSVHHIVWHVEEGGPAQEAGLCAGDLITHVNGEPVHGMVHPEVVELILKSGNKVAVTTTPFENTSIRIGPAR
# LAP2, Q96RT1 = target: LAP2, Q96RT1
# Chain of LAP2, Q96RT1 (Q96RT1 other isoform, or with tags, fused parts or gaps): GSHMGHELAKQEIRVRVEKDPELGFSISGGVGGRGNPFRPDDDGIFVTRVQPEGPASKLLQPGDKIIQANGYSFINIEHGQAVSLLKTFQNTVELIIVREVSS
# DLG4_2, P78352 = target: DLG4_2, P78352
# Chain of DLG4_2, P78352 (P78352 155-259): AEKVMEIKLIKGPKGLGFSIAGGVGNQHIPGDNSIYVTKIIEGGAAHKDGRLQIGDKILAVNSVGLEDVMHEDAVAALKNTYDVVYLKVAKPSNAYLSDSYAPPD
# GIPC2, Q8TF65 = target: GIPC2, Q8TF65
# Chain of GIPC2, Q8TF65 (Q8TF65 112-203): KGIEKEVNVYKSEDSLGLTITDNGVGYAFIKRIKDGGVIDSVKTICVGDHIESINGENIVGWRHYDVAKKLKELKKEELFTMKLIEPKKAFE
# GRID2IP_2, A4D2P6 = target: GRID2IP_2, A4D2P6
# Chain of GRID2IP_2, A4D2P6 (A4D2P6 272-370): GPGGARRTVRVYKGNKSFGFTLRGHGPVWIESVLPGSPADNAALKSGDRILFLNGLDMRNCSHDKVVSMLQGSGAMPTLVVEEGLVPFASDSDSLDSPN
# PDZD2_2, O15018 = target: T4, PDZD2_2, O15018
# DLG4_1, P78352 = target: DLG4_1, P78352
# Chain of DLG4_1, P78352 (P78352 62-152): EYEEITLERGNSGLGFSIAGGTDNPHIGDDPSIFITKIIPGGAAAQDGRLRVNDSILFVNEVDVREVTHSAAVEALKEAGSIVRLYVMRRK
# SNTB1, Q13884 = target: T5, SNTB1, Q13884
# MAGI3_2, Q5TCQ9 = target: MAGI3_2, Q5TCQ9
# Chain of MAGI3_2, Q5TCQ9 (Q5TCQ9 398-503): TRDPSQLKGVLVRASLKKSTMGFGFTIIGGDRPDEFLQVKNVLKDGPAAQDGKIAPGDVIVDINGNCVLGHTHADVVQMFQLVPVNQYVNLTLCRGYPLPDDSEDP
# FRMPD4, Q14CM0 = target: FRMPD4, Q14CM0
# Chain of FRMPD4, Q14CM0 (Q14CM0 67-160): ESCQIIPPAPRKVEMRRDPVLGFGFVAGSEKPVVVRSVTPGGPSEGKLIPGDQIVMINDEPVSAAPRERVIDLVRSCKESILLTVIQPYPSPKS
# IL16_1, Q14005 = target: IL16_1, Q14005
# Chain of IL16_1, Q14005 (Q14005 210-306): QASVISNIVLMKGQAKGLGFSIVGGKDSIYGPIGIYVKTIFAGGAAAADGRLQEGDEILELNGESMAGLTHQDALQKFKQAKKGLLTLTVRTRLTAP
# Inadl_6, Q8NI35 = target: Inadl_6, Q8NI35
# Chain of Inadl_6, Q8NI35 (Q8NI35 1058-1167): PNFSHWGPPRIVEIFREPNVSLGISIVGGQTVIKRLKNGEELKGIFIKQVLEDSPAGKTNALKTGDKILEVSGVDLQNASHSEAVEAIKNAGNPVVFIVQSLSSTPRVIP
# GORASP2, Q9H8Y8 = target: GORASP2, Q9H8Y8
# GRIP2_5, Q9C0E4 = target: GRIP2_5, Q9C0E4
# Chain of GRIP2_5, Q9C0E4 (Q9C0E4 544-642): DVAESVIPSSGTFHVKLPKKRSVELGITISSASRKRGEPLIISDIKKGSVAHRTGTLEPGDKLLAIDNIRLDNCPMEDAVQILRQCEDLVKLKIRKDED
# Inadl_1, Q8NI35 = target: Inadl_1, Q8NI35
# Chain of Inadl_1, Q8NI35 (Q8NI35 113-229): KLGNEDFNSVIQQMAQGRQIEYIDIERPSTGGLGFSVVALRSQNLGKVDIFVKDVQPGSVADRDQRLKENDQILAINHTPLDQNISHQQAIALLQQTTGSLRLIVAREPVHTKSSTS
# HTRA2, O43464 = target: HTRA2, O43464
# Chain of HTRA2, O43464 (O43464 355-458): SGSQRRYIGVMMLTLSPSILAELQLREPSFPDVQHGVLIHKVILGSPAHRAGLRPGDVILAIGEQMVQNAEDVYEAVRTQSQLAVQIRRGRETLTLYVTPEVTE
# MAGI2_4, Q86UL8 = target: MAGI2_4, Q86UL8
# Chain of MAGI2_4, Q86UL8 (Q86UL8 772-865): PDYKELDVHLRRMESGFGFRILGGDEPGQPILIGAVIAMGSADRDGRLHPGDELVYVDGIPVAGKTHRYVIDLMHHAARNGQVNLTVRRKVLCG
# MAST2, Q6P0Q8 = target: MAST2, Q6P0Q8
# Chain of MAST2, Q6P0Q8 (Q6P0Q8 1099-1202): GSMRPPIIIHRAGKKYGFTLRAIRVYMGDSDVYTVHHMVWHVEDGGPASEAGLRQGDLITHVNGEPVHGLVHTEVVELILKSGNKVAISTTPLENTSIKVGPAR
# MAGI2_5, Q86UL8 = target: MAGI2_5, Q86UL8
# Chain of MAGI2_5, Q86UL8 (Q86UL8 915-1017): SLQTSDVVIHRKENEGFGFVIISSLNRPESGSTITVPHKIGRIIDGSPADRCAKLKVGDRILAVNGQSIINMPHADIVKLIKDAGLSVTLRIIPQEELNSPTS
# ARHGAP21, Q5T5U3 = target: T6, ARHGAP21, Q5T5U3
# [1] = plain residues with an end cap or a label only (N-terminal biotin on a linker: ado-ado)
# [2] = plain residues with an end cap or a label only (N-terminal biotin on a linker: (peg)3)
binder,measurement,setting,value
B1,pKd,"PDLIM1, O00151; [1]",3.57
same,pKd,"SHANK1, Q9Y566; [1]",below the threshold
same,pKd,"RADIL, Q96JH8; [1]",3.59
same,pKd,"Inadl_10, Q8NI35; [1]",below the threshold
same,pKd,"DLG4_3, P78352; [1]",below the threshold
same,pKd,"GRASP, Q7Z6J2; [1]",3.65
same,pKd,"APBA2_2, Q99767; [1]",below the threshold
same,pKd,"HTRA1, Q92743; [1]",below the threshold
same,pKd,"DLG1_2, Q12959; [1]",below the threshold
same,pKd,"LNX1_2, Q8TBB1; [1]",below the threshold
same,pKd,"IL16_4, Q14005; [1]",below the threshold
same,pKd,"LNX1_3, Q8TBB1; [1]",below the threshold
same,pKd,"DLG2_3, Q15700; [1]",below the threshold
same,pKd,"MAST1, Q9Y2H9; [1]",3.96
same,pKd,"LAP2, Q96RT1; [1]",3.73
same,pKd,"DLG4_2, P78352; [1]",below the threshold
same,pKd,"GIPC2, Q8TF65; [1]",below the threshold
same,pKd,"GRID2IP_2, A4D2P6; [1]",4.35
same,pKd,"PDZD2_2, O15018; [1]",5.49
same,pKd,"DLG4_1, P78352; [1]",below the threshold
same,pKd,"SNTB1, Q13884; [1]",4.59
same,pKd,"MAGI3_2, Q5TCQ9; [1]",below the threshold
same,pKd,"FRMPD4, Q14CM0; [1]",below the threshold
same,pKd,"IL16_1, Q14005; [1]",3.89
same,pKd,"Inadl_6, Q8NI35; [1]",3.65
same,pKd,"GORASP2, Q9H8Y8; [1]",below the threshold
same,pKd,"GRIP2_5, Q9C0E4; [1]",below the threshold
same,pKd,"Inadl_1, Q8NI35; [1]",below the threshold
same,pKd,"HTRA2, O43464; [1]",below the threshold
same,pKd,"MAGI2_4, Q86UL8; [1]",below the threshold
same,pKd,"MAST2, Q6P0Q8; [1]",4.73
same,pKd,"MAGI2_5, Q86UL8; [1]",below the threshold
same,pKd,"ARHGAP21, Q5T5U3; [1]",3.5
B2,pKd,"PDLIM1, O00151; [1]",below the threshold
same,pKd,"SHANK1, Q9Y566; [1]",3.63
same,pKd,"RADIL, Q96JH8; [1]",3.52
same,pKd,"Inadl_10, Q8NI35; [1]",below the threshold
same,pKd,"DLG4_3, P78352; [1]",below the threshold
same,pKd,"GRASP, Q7Z6J2; [1]",3.54
same,pKd,"APBA2_2, Q99767; [1]",below the threshold
same,pKd,"HTRA1, Q92743; [1]",3.56
same,pKd,"DLG1_2, Q12959; [1]",3.67
same,pKd,"LNX1_2, Q8TBB1; [1]",3.88
same,pKd,"IL16_4, Q14005; [1]",below the threshold
same,pKd,"LNX1_3, Q8TBB1; [1]",below the threshold
same,pKd,"DLG2_3, Q15700; [1]",3.57
same,pKd,"MAST1, Q9Y2H9; [1]",3.63
same,pKd,"LAP2, Q96RT1; [1]",below the threshold
same,pKd,"DLG4_2, P78352; [1]",3.91
same,pKd,"GIPC2, Q8TF65; [1]",below the threshold
same,pKd,"GRID2IP_2, A4D2P6; [1]",3.69
same,pKd,"PDZD2_2, O15018; [1]",4.2
same,pKd,"DLG4_1, P78352; [1]",below the threshold
same,pKd,"SNTB1, Q13884; [1]",4.34
same,pKd,"MAGI3_2, Q5TCQ9; [1]",below the threshold
same,pKd,"FRMPD4, Q14CM0; [1]",below the threshold
same,pKd,"IL16_1, Q14005; [1]",below the threshold
same,pKd,"Inadl_6, Q8NI35; [1]",below the threshold
same,pKd,"GORASP2, Q9H8Y8; [1]",below the threshold
same,pKd,"GRIP2_5, Q9C0E4; [1]",below the threshold
same,pKd,"Inadl_1, Q8NI35; [1]",below the threshold
same,pKd,"HTRA2, O43464; [1]",below the threshold
same,pKd,"MAGI2_4, Q86UL8; [1]",below the threshold
same,pKd,"MAST2, Q6P0Q8; [1]",4.9
same,pKd,"MAGI2_5, Q86UL8; [1]",below the threshold
same,pKd,"ARHGAP21, Q5T5U3; [1]",4.27
B3,pKd,"PDLIM1, O00151; [2]",below the threshold
same,pKd,"SHANK1, Q9Y566; [2]",below the threshold
same,pKd,"RADIL, Q96JH8; [2]",below the threshold
same,pKd,"Inadl_10, Q8NI35; [2]",below the threshold
same,pKd,"DLG4_3, P78352; [2]",below the threshold
same,pKd,"GRASP, Q7Z6J2; [2]",below the threshold
same,pKd,"APBA2_2, Q99767; [2]",below the threshold
same,pKd,"HTRA1, Q92743; [2]",below the threshold
same,pKd,"DLG1_2, Q12959; [2]",below the threshold
same,pKd,"LNX1_2, Q8TBB1; [2]",below the threshold
same,pKd,"IL16_4, Q14005; [2]",below the threshold
same,pKd,"LNX1_3, Q8TBB1; [2]",below the threshold
same,pKd,"DLG2_3, Q15700; [2]",below the threshold
same,pKd,"MAST1, Q9Y2H9; [2]",below the threshold
same,pKd,"LAP2, Q96RT1; [2]",below the threshold
same,pKd,"DLG4_2, P78352; [2]",below the threshold
same,pKd,"GIPC2, Q8TF65; [2]",below the threshold
same,pKd,"GRID2IP_2, A4D2P6; [2]",below the threshold
same,pKd,"PDZD2_2, O15018; [2]",below the threshold
same,pKd,"DLG4_1, P78352; [2]",below the threshold
same,pKd,"SNTB1, Q13884; [2]",below the threshold
same,pKd,"MAGI3_2, Q5TCQ9; [2]",below the threshold
same,pKd,"FRMPD4, Q14CM0; [2]",below the threshold
same,pKd,"IL16_1, Q14005; [2]",below the threshold
same,pKd,"Inadl_6, Q8NI35; [2]",below the threshold
same,pKd,"GORASP2, Q9H8Y8; [2]",below the threshold
same,pKd,"GRIP2_5, Q9C0E4; [2]",below the threshold
same,pKd,"Inadl_1, Q8NI35; [2]",below the threshold
same,pKd,"HTRA2, O43464; [2]",below the threshold
same,pKd,"MAGI2_4, Q86UL8; [2]",below the threshold
same,pKd,"MAST2, Q6P0Q8; [2]",below the threshold
same,pKd,"MAGI2_5, Q86UL8; [2]",below the threshold
same,pKd,"ARHGAP21, Q5T5U3; [2]",below the threshold

# Source: paper PMC9482650, “Quantitative fragmentomics allow affinity mapping of interactomes” (Nature Communications, 2022)
